{"source": "patent US20240409660A1", "molecules": {"B1": {"name": "ICOSL F120S/Y152H/N201S variant ECD-Fc fusion (Fc fusion)", "chain": "DTQEKEVRAMVGSDVELSCACPEGSRFDLNDVYVYWQTSESKTVVTYHIPQNSSLENVDSRYRNRALMSPAGMLRGDFSLRLFNVTPQDEQKFHCLVLSQSLGFQEVLSVEVTLHVAANSSVPVVSAPHSPSQDELTFTCTSINGYPRPNVHWINKTDNSLLDQALQNDTVFLNMRGLYDVVSVLRIARTPSVNIGCCIESVLLQQNLTVGSQTGNDIGERDKITENPVSTGEKNAATAAAEPKSSDKTHTCPPCPAPELLGGPSVFLFPPKPKDTLMISRTPEVTCVVVDVSHEDPEVKFNWYVDGVEVHNAKTKPCEEQYGSTYRCVSVLTVLHQDWLNGKEYKCKVSNKALPAPIEKTISKAKGQPREPQVYTLPPSREEMTKNQVSLTCLVKGFYPSDIAVEWESNGQPENNYKTTPPVLDSDGSFFLYSKLTVDKSRWQQGNVFSCSVMHEALHNHYTQKSLSLSPGK"}}, "key": {"[1]": {"molecular_target": "human CD28, full-length, expressed on Expi293 cells (human) (UniProt P10747)", "assay": "flow cytometry, transfected cells"}, "[2]": {"molecular_target": "human PD-L1, full-length, expressed on Expi293 cells (human) (UniProt Q9NZQ7)", "assay": "flow cytometry, transfected cells"}, "human PD-L1 (human)": {"molecular_target": "human PD-L1 (human) (UniProt Q9NZQ7)", "assay": "flow cytometry, transfected cells"}, "human CD28 (human)": {"molecular_target": "human CD28 (human) (UniProt P10747)", "assay": "flow cytometry, transfected cells"}, "[3]": {"molecular_target": "human CD28, full length, expressed on transfected Expi293 cells (human) (UniProt P10747)", "assay": "flow cytometry, Expi293 cells transfected with human CD28"}}, "data": [{"molecule": "CD80 K36G/K37Q/M38I/L40M/F59L/E81V/L85R/K89N/A91T/F92P/K93V/R94L/E99G/T130A/N149S ECD-Fc (Fc fusion)", "values": [{"measurement": "MFI ratio to WT CD80 (parental ratio)", "setting": "[1]", "result": 0.1}]}, {"molecule": "stacked IgV-Fc fusion: domain 1 CD80 WT, domain 2 ICOSL WT", "values": [{"measurement": "MFI", "setting": "[1]", "result": 1230, "unit": "MFI"}, {"measurement": "MFI", "setting": "[2]", "result": 2660, "unit": "MFI"}]}, {"molecule": "stacked IgV-Fc fusion: domain 1 ICOSL WT, domain 2 NKp30 WT", "values": [{"measurement": "MFI", "setting": "[1]", "result": 7920, "unit": "MFI"}]}, {"molecule": "stacked IgV-Fc fusion: domain 1 NKp30 WT, domain 2 ICOSL WT", "values": [{"measurement": "MFI", "setting": "[1]", "result": 6340, "unit": "MFI"}]}, {"molecule": "stacked IgV-Fc: Domain 1 CD80 WT / Domain 2 ICOSL WT (Fc fusion)", "values": [{"measurement": "MFI", "setting": "human PD-L1 (human)", "result": 1230, "unit": "MFI"}]}, {"molecule": "stacked IgV-Fc: Domain 1 ICOSL WT / Domain 2 CD80 WT (Fc fusion)", "values": [{"measurement": "MFI", "setting": "human PD-L1 (human)", "result": 3000, "unit": "MFI"}]}, {"molecule": "variant ICOSL ECD-Fc T43A, N52H, N57Y, L74Q, D89G, V110D, F172S (Fc fusion)", "values": [{"measurement": "parental ratio", "setting": "human CD28 (human)", "result": 0.49}]}, {"molecule": "B1", "values": [{"measurement": "MFI ratio to parental (WT ICOSL)", "setting": "[3]", "result": 0.89}]}]}
